# Measurements published in the nanobody polyreactivity screen of Harvey et al. (2022).
# Assay: yeast display, Sf9 membrane polyspecificity reagent, FACS + sequencing; frameworks hold sequencing errors
# Procedure, shortened: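 Nanobodies came from a synthetic yeast display library in Saccharomyces cerevisiae BJ5465, induced with galactose for 36–48 hours and stained for 1 hour at 4 °C with 10% biotinylated, detergent-solubilized Sf9 membrane reagent. Cells were enriched on streptavidin microbeads and then FACS-sorted, with low and high (top ~1%) gates set on anti-HA fluorescence for expression and streptavidin fluorescence for reagent binding. Each polyreactivity label reflects the gate a clone came from. Genes were amplified by colony PCR, sequenced by MiSeq 2 × 250 and filtered by CDR length.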
row,Sequence,polyreactivity (PSR sort gate)
1,QVQLVESGGGLVQAGGSLRLSCAASGSTFWGYTMGWYRQAPGKERELVAAISTIGGSTYYADSVKGRFTISRDNAKNTVYLQMNSLKPEDTAVYYCAAEVYTFSGTSWVKDGGYWGQGTQVTVSS,low polyreactivity
2,QVQLVESGGGLVQAGGSLRLSCAASGSTFWHNAMGWYRQAPGKERELVAAISYSGGNTNYADSVKGRFTISRDNAKNTVYLQMNSLKPEDTAVYYCNAPDVFPQAIYDYWGQGTQVTVSS,high polyreactivity
3,QVQLVESGGGLVQAGGSLRLSCAASGSTFWHYAMGWYRQAPGKERELVASISGRGTSTYYADSVKGRFTLSRDNAKNTVYLQMNSLKPEDTAVYYCAATKWYRAFDYWGQGTQVTVSS,low polyreactivity
4,QVQLVESGGGLVQAGGSLRLSCAASGSTFWIYAMGWYRQAPGKERELVAAINWSGGNTYYADSVKGRFTISRDNAKNTVYLQMNSLKPEDTAVYYCAAAFYIYGVEGDYWGQGTQVTVSS,low polyreactivity
5,QVQLVESGGGLVQAGGSLRLSCAASGSTFWKYAMGWYRQAPGKERELVASIRSGGSTYYADSVKGRFTISRDNAKNTVYLQMNSLKPEDTAVYYCAAVTHGRYDWGQGTQVTVSS,high polyreactivity
6,QVQLVESGGGLVQAGGSLRLSCAASGSTFWPYAMGWYRQAPGKERELVAAIRVIGGSKYYADSVKGRFTISRDNAKNTVYLQMNSLKPEDTAVYYCNAYRPGGARFYARYRYDYWGQGTQVTVSS,low polyreactivity
7,QVQLVESGGGLVQAGGSLRLSCAASGSTFWPYTMGWYRPATGKESELVAAISLSGGSTYYADSVKGRFTISRDNAKNSVYLQMNSLKPEDTAVYYCAAEGGYQNWHYLYEYWGQGTQVTVSS,low polyreactivity
8,QVQLVESGGGLVQAGGSLRLSCAASGSTFWSYAMGWYRPAPGKERELVAAITSGGRTYYADSVKGRFTISRDNAKNTVYLQMNSLKPEDTAVYYCAAEGSVGLYGLIMHYWGQGTQVTVSS,high polyreactivity
9,QVQLVESGGGLVQAGGSLRLSCAASGSTFWSYAMGWYRQAPGKERELVASISRRGGSTSYADSVKGRFTISRDNAKNTVYLQMNSLKPEDTAVYYCAARLLRTTKPRSGYGYWGQGTQVTVSS,high polyreactivity
10,QVQLVESGGGLVQAGGSLRLSCAASGSTFWTNAMGWYRQAPGKERELVAAISRSGGSTYYADSVKGRFTISRDNAKNTVYLQMNSLKPEDTAVYYCNAVLPYYRGSHYDYWGQGTQVTVSS,high polyreactivity
11,QVQLVESGGGLVQAGGSLRLSCAASGSTFWTNDMGWYRQAPGKERELVAAISQSAGDTYYADSVKGRFTISRDNAKNTVYLQMNSLKPEDTAVSYCAADLVFYPFTWDGYYYWGQGTQVTVSS,low polyreactivity
12,QVQLVESGGGLVQAGGSLRLSCAASGSTFWVNAMGWYRQAPGKERELVAAISERGGRTYYADSVKGRFTISRDNAKNTVYLQMNSLKPEDTAVYYCNRVTRSNVDYWGQGTQVTVSS,high polyreactivity
13,QVQLVESGGGLVQAGGSLRLSCAASGSTFWVNAMGWYRQAPGKERELVAAITVRGTSTYYADSVKGRFTISRDNAKNTVYLQMNSLKPEDTAVYYCAADTPSNSHDYWGQGTQVTVSS,low polyreactivity
14,QVQLVESGGGLVQAGGSLRLSCAASGSTFWVNARGWYRQAPGKERELVAAIRRGGSTKYADSVKGRFTISRDNAKTTVYLQMNSLKPEDTAVYYCAADSYRTPAIYDYWGQGTQVTVSS,high polyreactivity
15,QVQLVESGGGLVQAGGSLRLSCAASGSTFWVYAMGWYRQAPGKERELVAGISNSGGNTYYADSVKGRFTISRDNAKNTVYLQMNSLKPEDTAVYYCNVDRGNPVPPSEYWGQGTQVSVSS,low polyreactivity
16,QVQLVESGGGLVQAGGSLRLSCAASGSTFWWTTMGWYRQAPGTERELVAAITTGGGTYYADSVKGRFTISRDNAKNTVYLQMNSLKPEDTAVYYCNADYDSQYHYLLRYDYWGQGTQVTVSS,low polyreactivity
17,QVQLVESGGGLVQAGGSLRLSCAASGSTFWWYAMGWYRPAPGKERELVARISNGGGTNYADSGKGRFTISRDNEKNSVFLQMNSLIPEDTAVYYCAATVGVAYYENDYWGQGTQVTVSS,low polyreactivity
18,QVQLVESGGGLVQAGGSLRLSCAASGSTFWYNTMGWYRQAPGKERELVAAITSSGGSTYYADSVKGRFTISRDNAKNTVYLQMNSLKPEDTAVYYCNALHTRTGVKARYYYWGQGTQVTVSS,high polyreactivity
19,QVQLVESGGGLVQAGGSLRLSCAASGSTFWYYDMGWYRQAPGKERELVAAITSGGRTNYADSVKGRFTISRDNAKNTVYLQMNSLKPEDTAVYYCNAVSYGKYVFQDGDYWGQGTQVTVSS,high polyreactivity
20,QVQLVESGGGLVQAGGSLRLSCAASGSTFWYYDMGWYRQAPGQERALVAASTSGGRTNYADSVKGRVTISRDKAKNTVYLQMNSLKPEDTAVYYCARTSYRFYRKRYYWGQGTQVTVSS,high polyreactivity
21,QVQLVESGGGLVQAGGSLRLSCAASGSTFWYYGMGWYRQAPGKEMELVARINWSTGRTYYADSVKGRFTISRDTAKNTVYLQMNSLKPEDTAVYYCNALNPYKGQEAHYDYWGQGTQVTVSS,high polyreactivity
22,QVQLVESGGGLVQAGGSLRLSCAASGSTFWYYTMGWYRQAPGKERELVAGITSGGSTYYADSVKGRFTISRDNAKNTVYLQMNSLKPEDTAVYYCAKRYYGRGYYYWGQGTQVTVSS,high polyreactivity
23,QVQLVESGGGLVQAGGSLRLSCAASGSTFYANAMGWYRQAPGKERELVAAITRSGAGTYYADSVKGRFTFSRDNAKNTVYLQMNSLKPEDTAVYYCATRYGQWGQGTQVTVSS,high polyreactivity
24,QVQLVESGGGLVQAGGSLRLSCAASGSTFYANAMGWYRQAPGKERELVAEISFSGASTFYADSVKGRFTISRDNAKNTVYLQMNSLKPEDTAVYYCATANPSVVGFDYWGQGTQVTVSS,low polyreactivity
25,QVQLVESGGGLVQAGGSLRLSCAASGSTFYANPMGWYRQAPGKERELLAAITSGGSTNYADSVKGRFTISRDNAKITVYLQMISLKPEDTAVYYCATQVNRERHAEDYWGQGTQVTVSS,low polyreactivity
26,QVQLVESGGGLVQAGGSLRLSCAASGSTFYAYAMGWYRPAPGKERELVAAISSDGTNYADSVKGRFTISRDNAKNTVYLQMNSLKPEDTAVYYCAADLLLYSSQDNDYWGQGTQVTVSS,low polyreactivity
27,QVQLVESGGGLVQAGGSLRLSCAASGSTFYAYAMGWYRQAPGKERELVAAIRRSTGRTYYADSVKGRFTISRDNAKNTVYLQMNSLKPEDTAVYYCAASYPVDYYDMYYWGQGTQVTVSS,high polyreactivity
28,QVQLVESGGGLVQAGGSLRLSCAASGSTFYAYAMGWYRQAPGKERELVAAISSDGTNYADSVKGRFTISRDNAKNSVNLQMNSLKPVDTAVYYCAADLLLYSSQDNDYWGQGTQVTVSS,low polyreactivity
29,QVQLVESGGGLVQAGGSLRLSCAASGSTFYAYAMGWYRQAPGKERELVARIRWRGGRTYYADSVKGRFTISRDNAKNTVYLRMNSLKPEDTAVYYCNRGYYSYYGRYYYWGQGTQVTVSS,high polyreactivity
30,QVQLVESGGGLVQAGGSLRLSCAASGSTFYAYAMGWYRQAPGKERELVAVITSSGSTYYADSVKGRFTISRDNAKNTVYLQMNSLKPEDTAVYYCAAKRLSQSRRTQFRTRYPPMYYWGQGTQVTVSS,high polyreactivity
